Data as given in PMC5159498 (2016).
Substitutions are numbered along the chain they refer to. Names may count otherwise.

B1: CDC42 (aa 1-178) (domain or fragment)
chain: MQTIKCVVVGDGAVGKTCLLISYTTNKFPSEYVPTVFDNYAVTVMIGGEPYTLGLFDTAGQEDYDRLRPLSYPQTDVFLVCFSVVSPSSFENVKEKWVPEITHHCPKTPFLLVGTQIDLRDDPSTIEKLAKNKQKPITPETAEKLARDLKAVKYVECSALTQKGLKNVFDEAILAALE
B2: IQGAP1 GRD1-RGCT wild type (aa 877-1558) (domain or fragment)
chain: DQSDQDFQEELDLMKMREEVITLIRSNQQLENDLNLMDIKIGLLVKNKITLQDVVSHSKKLTKKNKEQLSDMMMINKQKGGLKALSKEKREKLEAYQHLFYLLQTNPTYLAKLIFQMPQNKSTKFMDSVIFTLYNYASNQREEYLLLRLFKTALQEEIKSKVDQIQEIVTGNPTVIKMVVSFNRGARGQNALRQILAPVVKEIMDDKSLNIKTDPVDIYKSWVNQMESQTGEASKLPYDVTPEQALAHEEVKTRLDSSIRNMRAVTDKFLSAIVSSVDKIPYGMRFIAKVLKDSLHEKFPDAGEDELLKIIGNLLYYRYMNPAIVAPDAFDIIDLSAGGQLTTDQRRNLGSIAKMLQHAASNKMFLGDNAHLSIINEYLSQSYQKFRRFFQTACDVPELQDKFNVDEYSDLVTLTKPVIYISIGEIINTHTLLLDHQDAIAPEHNDPIHELLDDLGEVPTIESLIGESSGNLNDPNKEALAKTEVSLTLTNKFDVPGDENAEMDARTILLNTKRLIVDVIRFQPGETLTEILETPATSEQEAEHQRAMQRRAIRDAKTPDKMKKSKSVKEDSNLTLQEKKEKIQTGLKKLTELGTVDPKNKYQELINDIARDIRNQRRYRQRRKAELVKLQQTYAALNSKATFYGEQVDYYKSYIKTCLDNLASKGKVSKKPREMKGKKSKK
B3: IQGAP1 GRD1-RGCT S1443E (aa 877-1558) (domain or fragment)
chain: B2 chain with S567E
B4: IQGAP1 GRD1-RGCT S1441E (aa 877-1558) (domain or fragment)
chain: B2 chain with S565E
B5: IQGAP1 GRD1-CT (aa 863-1657) (domain or fragment)
chain: DPPMVVVRKFVHLLDQSDQDFQEELDLMKMREEVITLIRSNQQLENDLNLMDIKIGLLVKNKITLQDVVSHSKKLTKKNKEQLSDMMMINKQKGGLKALSKEKREKLEAYQHLFYLLQTNPTYLAKLIFQMPQNKSTKFMDSVIFTLYNYASNQREEYLLLRLFKTALQEEIKSKVDQIQEIVTGNPTVIKMVVSFNRGARGQNALRQILAPVVKEIMDDKSLNIKTDPVDIYKSWVNQMESQTGEASKLPYDVTPEQALAHEEVKTRLDSSIRNMRAVTDKFLSAIVSSVDKIPYGMRFIAKVLKDSLHEKFPDAGEDELLKIIGNLLYYRYMNPAIVAPDAFDIIDLSAGGQLTTDQRRNLGSIAKMLQHAASNKMFLGDNAHLSIINEYLSQSYQKFRRFFQTACDVPELQDKFNVDEYSDLVTLTKPVIYISIGEIINTHTLLLDHQDAIAPEHNDPIHELLDDLGEVPTIESLIGESSGNLNDPNKEALAKTEVSLTLTNKFDVPGDENAEMDARTILLNTKRLIVDVIRFQPGETLTEILETPATSEQEAEHQRAMQRRAIRDAKTPDKMKKSKSVKEDSNLTLQEKKEKIQTGLKKLTELGTVDPKNKYQELINDIARDIRNQRRYRQRRKAELVKLQQTYAALNSKATFYGEQVDYYKSYIKTCLDNLASKGKVSKKPREMKGKKSKKISLKYTAARLHEKGVLLEIEDLQVNQFKNVIFEISPTEEVGDFEVKAKFMGVQMETFMLHYQDLLQLQYEGVAVMKLFDRAKVNVNLLIFLLNKKFYGK

What was measured:
[1] = target: B3; test: mGppNHp-bound CDC42
[2] = target: B4; test: mGppNHp-bound CDC42
[3] = target: B1; test: mGppNHp-bound CDC42
[4] = target: RAC1 (aa 1-179) (human, UniProt P63000 1-179); test: mGppNHp-bound RAC1
[5] = target: CDC42 Q61L (human, UniProt P60953 1-178, Q61L); test: tGppNHp-bound CDC42 Q61L
Chain of CDC42 Q61L (P60953 1-178 Q61L): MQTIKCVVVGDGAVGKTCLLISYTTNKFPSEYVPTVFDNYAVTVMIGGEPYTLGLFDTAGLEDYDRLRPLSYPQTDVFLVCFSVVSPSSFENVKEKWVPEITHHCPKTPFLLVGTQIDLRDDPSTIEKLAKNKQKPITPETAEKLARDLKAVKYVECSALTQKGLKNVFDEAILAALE

Row | koff [1] | koff [2] | koff [3] | koff [4] | koff [5] | Binder
1 | 2.32 s⁻¹ | 1.83 s⁻¹ |  |  |  | B1
2 |  |  | 2.23 s⁻¹ | 2.78 s⁻¹ |  | B2
3 |  |  |  | 2.82 s⁻¹ |  | B3
4 |  |  |  | 2.71 s⁻¹ |  | B4
5 |  |  | 0.39 s⁻¹ | 0.66 s⁻¹ | 0.073 s⁻¹ | B5
